PMC5382721 (Cell reports, 2017)
Blank lines part the entries; values can stand above or below the molecule they belong to.

Assays:
[1] = target: GST-eIF3c-E_(87–163) (yeast (S. cerevisiae)) (UniProt P32497); experiment: pull-down
[2] = target: GST-eIF3c-G_(1–58) (yeast (S. cerevisiae)) (UniProt P32497); experiment: pull-down
[3] = target: eIF1 (yeast (S. cerevisiae)) (UniProt P32911); experiment: ITC
[4] = target: eIF1 (yeast (S. cerevisiae), UniProt P32911 1-108); experiment: ITC
[5] = target: eIF1-K37E (yeast (S. cerevisiae), UniProt P32911 1-108, K37E); experiment: ITC
[6] = target: eIF1-L96P (yeast (S. cerevisiae), UniProt P32911 1-108, L96P); experiment: ITC
Chain of eIF1-L96P (P32911 whole entry L96P): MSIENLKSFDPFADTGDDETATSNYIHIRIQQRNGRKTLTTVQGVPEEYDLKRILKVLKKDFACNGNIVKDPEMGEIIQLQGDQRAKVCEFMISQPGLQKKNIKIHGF

Chain of eIF1 (P32911 whole entry): as the sequence (P32911 whole entry L96P) above, with P96L counted along it
Chain of eIF1 (yeast (S. cerevisiae)) (P32911 whole entry): as the sequence (P32911 whole entry L96P) above, with P96L counted along it
Chain of eIF1-K37E (P32911 whole entry K37E): as the sequence (P32911 whole entry L96P) above, with K37E, P96L counted along it

Molecule: eIF1 (from UniProt P32911 1-108) (natural protein)
- amount of eIF1 bound relative to that bound to GST-eIF3c-F [1]: < 10%
- amount of eIF1 bound relative to that bound to GST-eIF3c-F [2]: < 10%

B3: eIF3c-C_(36–87) (domain or fragment, yeast (S. cerevisiae), UniProt P32497 36-87, looked up)
chain: SESELDQESDDSFFNESESESEADVDSDDSDAKPYGPDWFKKSEFRKQGGGS
- Kd [4]: ~1000 nM

B4: eIF3c-B_(36–163) (domain or fragment, yeast (S. cerevisiae), UniProt P32497 36-163, looked up)
chain: SESELDQESDDSFFNESESESEADVDSDDSDAKPYGPDWFKKSEFRKQGGGSNKFLKSSNYDSSDEESDEEDGKKVVKSAKEKLLDEMQDVYNKISQAENSDDWLTISNEFDLISRLLVRAQQQNWGT
- fold reduction of binding against WT eIF1 [5]: 4 fold
- fold reduction of affinity against WT eIF1 [6]: 10 fold

Now from value to molecule:

- Kd [3]: > 100000 nM
- stoichiometry N (eIF3c molecules bound per eIF1 molecule) [3]: 0.4
Molecule: eIF3c-E_(87–163) (from UniProt P32497 87-163) (domain or fragment)

- Kd [4]: ~1000 nM
B1: eIF3c-F_(1–87) (domain or fragment, yeast (S. cerevisiae), UniProt P32497 1-87, looked up)
chain: MSRFFSSNYEYDVASSSSEEDLLSSSEEDLLSSSSSESELDQESDDSFFNESESESEADVDSDDSDAKPYGPDWFKKSEFRKQGGGS

- Kd [4]: ~8000 nM
- stoichiometry N [4]: 1 eIF3c molecules bound per eIF1 molecule
B2: eIF3c-D_(58–163) (domain or fragment, yeast (S. cerevisiae), UniProt P32497 58-163, looked up)
chain: ADVDSDDSDAKPYGPDWFKKSEFRKQGGGSNKFLKSSNYDSSDEESDEEDGKKVVKSAKEKLLDEMQDVYNKISQAENSDDWLTISNEFDLISRLLVRAQQQNWGT
